Consider two molecules from patent publication US20100111958A1 (published 2010).

Experiment [1] has as its target T1, recombinant Notch2 (EGF1-12) Fc fusion protein (human).
T1 construct: passively immobilised for phage selection and ELISA screen; also called Notch2 Fc fusion protein
Kind of experiment: phage selection and ELISA screen on passively immobilized Notch2 (EGF1-12) Fc fusion. On the procedure: Briefly, 2×10¹³ Fab displaying phage particles were incubated with a passively immobilized, recombinant Notch2 Fc fusion protein (SEQ ID NO:21) comprising the extracellular ligand binding site of Notch2 and surrounding EGF repeats (EGF1-12) in round one. The non-specific phage were washed off, and then the specific phage were eluted with DTT. The eluted output was used to infect TG1 F+bacteria, rescued with helper phage, and then Fab display induced with IPTG (0.25 mM). This process was repeated for two additional rounds and then round three was screened in ELISA against passively immobilized recombinant Notch2 (EGF1-12) Fc fusion (5 μg/ml).

In experiment [2] the target is T2, human Notch1 with residues 382-386 mutated to the corresponding human Notch2 residues (385-389), full length, … (human, UniProt P46531 19-2555).
T2 construct: G384 is the same in both; also called mutant hNotch1; mutated Notch1
T2 sequence (P46531 other isoform, or with tags, fused parts or gaps limits assumed, change not shown): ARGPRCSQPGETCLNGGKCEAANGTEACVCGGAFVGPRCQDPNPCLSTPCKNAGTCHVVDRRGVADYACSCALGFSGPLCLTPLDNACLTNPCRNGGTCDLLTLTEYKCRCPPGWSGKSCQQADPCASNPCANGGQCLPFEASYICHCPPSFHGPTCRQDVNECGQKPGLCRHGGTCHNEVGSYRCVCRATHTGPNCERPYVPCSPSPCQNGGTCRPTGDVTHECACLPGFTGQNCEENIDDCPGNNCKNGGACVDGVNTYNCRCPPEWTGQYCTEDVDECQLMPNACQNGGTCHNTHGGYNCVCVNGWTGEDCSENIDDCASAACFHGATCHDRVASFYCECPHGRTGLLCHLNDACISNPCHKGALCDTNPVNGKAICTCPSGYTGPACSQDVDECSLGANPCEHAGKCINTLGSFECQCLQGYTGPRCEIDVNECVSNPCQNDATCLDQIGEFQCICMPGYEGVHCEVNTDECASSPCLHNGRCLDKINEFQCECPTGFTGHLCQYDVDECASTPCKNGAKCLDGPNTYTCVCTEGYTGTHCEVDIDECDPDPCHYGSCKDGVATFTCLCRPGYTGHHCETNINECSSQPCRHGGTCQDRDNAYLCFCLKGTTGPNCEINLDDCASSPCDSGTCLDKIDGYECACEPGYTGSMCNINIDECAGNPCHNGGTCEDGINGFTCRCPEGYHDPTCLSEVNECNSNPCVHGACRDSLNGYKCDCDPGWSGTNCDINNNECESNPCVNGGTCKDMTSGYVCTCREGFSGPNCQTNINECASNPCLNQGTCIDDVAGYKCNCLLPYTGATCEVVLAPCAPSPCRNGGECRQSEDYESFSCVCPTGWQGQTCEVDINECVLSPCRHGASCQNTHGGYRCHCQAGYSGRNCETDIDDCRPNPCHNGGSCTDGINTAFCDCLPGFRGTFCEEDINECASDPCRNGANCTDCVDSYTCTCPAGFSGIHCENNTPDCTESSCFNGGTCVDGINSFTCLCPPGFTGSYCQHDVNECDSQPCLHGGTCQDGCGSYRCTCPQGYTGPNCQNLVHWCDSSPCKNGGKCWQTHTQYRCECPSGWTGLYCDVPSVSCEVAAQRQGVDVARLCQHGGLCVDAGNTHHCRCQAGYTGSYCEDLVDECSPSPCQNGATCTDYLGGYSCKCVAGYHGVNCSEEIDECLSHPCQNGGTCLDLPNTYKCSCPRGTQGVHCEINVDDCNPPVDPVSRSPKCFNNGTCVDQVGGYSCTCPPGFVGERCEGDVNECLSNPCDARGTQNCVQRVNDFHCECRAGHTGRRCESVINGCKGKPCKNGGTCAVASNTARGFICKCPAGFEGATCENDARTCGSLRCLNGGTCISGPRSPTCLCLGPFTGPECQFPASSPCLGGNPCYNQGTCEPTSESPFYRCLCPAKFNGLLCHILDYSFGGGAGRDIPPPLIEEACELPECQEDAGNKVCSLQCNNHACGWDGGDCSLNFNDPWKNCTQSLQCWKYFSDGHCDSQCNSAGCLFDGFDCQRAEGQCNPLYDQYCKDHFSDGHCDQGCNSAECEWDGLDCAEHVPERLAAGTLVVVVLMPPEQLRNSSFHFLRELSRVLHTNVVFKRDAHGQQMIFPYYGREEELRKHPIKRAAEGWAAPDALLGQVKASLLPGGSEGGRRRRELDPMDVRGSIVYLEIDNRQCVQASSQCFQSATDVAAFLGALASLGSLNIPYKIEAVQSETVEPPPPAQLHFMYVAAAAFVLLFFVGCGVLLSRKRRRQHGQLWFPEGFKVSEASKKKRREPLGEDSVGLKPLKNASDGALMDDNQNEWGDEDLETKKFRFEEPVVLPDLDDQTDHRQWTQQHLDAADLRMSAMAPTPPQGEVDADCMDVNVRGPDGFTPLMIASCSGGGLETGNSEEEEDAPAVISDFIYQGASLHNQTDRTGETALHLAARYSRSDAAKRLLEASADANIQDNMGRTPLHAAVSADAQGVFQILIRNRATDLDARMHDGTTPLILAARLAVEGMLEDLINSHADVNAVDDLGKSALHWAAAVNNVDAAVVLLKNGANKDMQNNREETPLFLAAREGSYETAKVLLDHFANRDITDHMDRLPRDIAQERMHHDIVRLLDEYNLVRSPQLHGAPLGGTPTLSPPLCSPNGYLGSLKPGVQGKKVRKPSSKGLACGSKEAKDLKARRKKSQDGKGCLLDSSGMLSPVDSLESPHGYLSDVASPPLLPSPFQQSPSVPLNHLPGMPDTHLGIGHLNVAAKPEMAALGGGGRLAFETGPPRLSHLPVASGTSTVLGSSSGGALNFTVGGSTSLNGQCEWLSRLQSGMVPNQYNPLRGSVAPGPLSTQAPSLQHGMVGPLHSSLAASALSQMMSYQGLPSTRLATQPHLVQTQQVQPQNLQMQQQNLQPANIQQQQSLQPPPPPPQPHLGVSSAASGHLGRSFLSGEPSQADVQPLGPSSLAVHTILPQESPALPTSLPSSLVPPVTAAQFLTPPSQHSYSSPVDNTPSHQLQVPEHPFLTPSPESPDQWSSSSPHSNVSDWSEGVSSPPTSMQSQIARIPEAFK
Nature of the experiment: FACS on transiently transfected HEK 293 cells. On the procedure:
FIG. 15. In vitro characterization of 59R5. […] PC3 tumor cells were transiently transfected with human or mouse Notch receptor (hN2, human Notch2; mN2, murine Notch2; hN3, human Notch3; mN3, murine Notch3) and GFP inducible reporter construct. Transfected cells were incubated with different concentrations of antibody 59R1 and 59R5 in the presence of passively immobilized DLL4 Fc. […] Cells were also co-transfected with a plasmid encoding green fluorescent protein (GFP) to mark those cells that received transfected plasmid. Cells were incubated with 59R1 or 59R5 and fluorescent secondary antibody and then examined by FACS.
The binding epitope of 59R5 was determined. As was described in Example 3 for analysis of antibody 59R1, several point mutants were created within full-length Notch1, converting residues within EGF10 to the corresponding amino acids in human Notch 2. Mutants in full-length Notch sequences were generated by QuikChange® mutagenesis (Stratagene) and verified by sequencing. […] Cells were also co-transfected with a plasmid encoding green fluorescent protein (GFP) to mark those cells that received transfected plasmid. Cells were incubated with 59R1 or 59R5 and fluorescent secondary antibody and then examined by FACS. 59R1 and 59R5 were detected by PE-conjugated goat anti-human Fc gamma specific antibody (Jackson Immunochemicals, #109-1,6-170).

T1 sequence (chain, as listed by the source limits assumed): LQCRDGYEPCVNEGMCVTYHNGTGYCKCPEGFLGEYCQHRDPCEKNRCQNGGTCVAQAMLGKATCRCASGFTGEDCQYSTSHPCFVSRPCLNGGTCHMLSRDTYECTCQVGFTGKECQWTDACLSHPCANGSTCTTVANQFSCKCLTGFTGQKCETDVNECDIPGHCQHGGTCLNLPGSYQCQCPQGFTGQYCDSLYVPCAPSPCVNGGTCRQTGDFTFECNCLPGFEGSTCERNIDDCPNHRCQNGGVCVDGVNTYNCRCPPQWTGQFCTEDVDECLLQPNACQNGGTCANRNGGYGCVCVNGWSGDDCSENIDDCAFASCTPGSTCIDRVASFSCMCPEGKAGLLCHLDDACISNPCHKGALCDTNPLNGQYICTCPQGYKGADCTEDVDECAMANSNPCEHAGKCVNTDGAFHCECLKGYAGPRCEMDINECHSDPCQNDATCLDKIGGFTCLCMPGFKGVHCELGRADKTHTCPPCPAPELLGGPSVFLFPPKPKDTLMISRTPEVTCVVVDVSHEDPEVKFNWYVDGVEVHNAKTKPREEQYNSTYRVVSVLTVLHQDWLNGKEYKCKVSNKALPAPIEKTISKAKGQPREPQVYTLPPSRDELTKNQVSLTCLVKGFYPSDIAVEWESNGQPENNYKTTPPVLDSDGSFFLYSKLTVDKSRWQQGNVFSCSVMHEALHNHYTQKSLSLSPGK

B1: 59R1 Fab (Fab, V domains shown)
VH: QVQLVESGGGLVQPGGSLRLSCAASGFTFSSSGMSWVRQAPGKGLEWVSVIASSGSNTYYADSVKGRFTISRDNSKNTLYLQMNSLRAEDTAVYYCARGIFFAIWGQGTLVTVSS
VL: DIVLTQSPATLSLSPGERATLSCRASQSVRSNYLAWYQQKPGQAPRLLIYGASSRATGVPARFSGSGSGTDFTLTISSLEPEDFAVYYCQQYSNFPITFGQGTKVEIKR
notes: Human Fab from a synthetic phage library; also called Clone 1; clone 1
Turning to B1, the binding result in experiment [1] is reported as “binds”.

B2: 59R5 antibody (antibody, human IgG2, kappa, V domains shown)
VH: EVQLVESGGGLVQPGGSLRLSCAASGFTFSSSGMSWVRQAPGKGLEWVSVIASSGSNTYYADSVKGRFTISRDNSKNTLYLQMNSLRAEDTAVYYCARSIFYTTWGQGTLVTVSS
VL: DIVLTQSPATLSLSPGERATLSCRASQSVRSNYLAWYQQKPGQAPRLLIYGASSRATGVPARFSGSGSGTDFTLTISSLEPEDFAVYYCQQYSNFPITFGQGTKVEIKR
notes: also called anti-Notch2/3 antibody 59R5; 59R5 IgG2
B2: the binding result in experiment [2] is “binds”.
